According to PMC3887258:

What was measured:
[1] = target: Human metapneumovirus matrix protein (M), untagged (human metapneumovirus, strain NL1-00); assay: crystal structure; 2.8 Å, space group P3_(1); crystals from 20% PEG 6000, 100 mM Tris pH 8.0, 10 mM zinc chloride, 20°C; mixture of intact and proteolysed untagged M
[2] = target: Human metapneumovirus matrix protein (M), untagged (human metapneumovirus, strain NL1-00); assay: negative-stain electron microscopy, 2D class averages; free M in samples of 7.2 μM M incubated with 400 μM DOPC for 7 days at 37°C; 2% uranyl acetate
[3] = target: Human metapneumovirus matrix protein (M), untagged (human metapneumovirus, strain NL1-00); assay: SAXS; untagged M in 1 M NaCl buffer, or as 9:1 mixture with SUMO-3C-M in 1 M NDSB-201 buffer; 1 to 4 mg/ml; 20°C, BM29 ESRF; fitted with MD-based ensemble optimisation

Measured: stoichiometry N

Human metapneumovirus matrix protein (M), untagged (natural protein)
2: all assays above
